Data taken from the supplement of paper PMC12636428.

System: Saccharomyces cerevisiae
Assay: transcriptional activation domain activity (GFP:mCherry ratio, weighted mean of sorted bins, harmonized to initial dataset scale) (arbitrary fluorescence ratio units); higher = stronger transcriptional activation
Details: beta-estradiol 1 µM; induction time 4 h
Procedure, shortened: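 For this assay, yeast diploids with a GFP reporter carried barcoded protein tiles at URA3, each fused to an estradiol-inducible synthetic transcription factor. Induction was a 1:5 dilution into SC with 1 uM beta-estradiol for 4 hours at 30 °C, followed by sorting into 8 bins by GFP:mCherry ratio and barcode sequencing. Tiles under 50 reads were dropped, and activation activity was calculated as the read-weighted mean of bin median fluorescence, averaged across barcodes and linearly mapped onto the initial dataset scale.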

Row | Sequence | transcriptional activation domain activity
1 | FAQRKSPFTQLLAFFLTRGCVIAGYQIILLIVPLLAGVSYTWVPLLFCLSRVY | 62100
2 | AGLIVLSGRFNGVVRCLREGFRLRTNIDKCMIFYISCKIALISLFTLLLLVEG | 46100
3 | EDGDVDMGEADDKPAEPEAEIKTEEVETAAAPEPETEPKSTPAVPAAAAAAAA | 24500
4 | SCMVYSIHNTTILILSFSPSPLNFFFFSSWLLFIFFFFLFLFLFLFLFLFLFL | 39900
5 | TSIRKIRAGESGGGESGGGESSGGESSGGGERGRRRRGAKEVEVRARGGGKAT | 43700
6 | MRIAIYWRSFSVSTSFFFLPGYSFFLSNWVLFLVYFYDTGCGVCFLPFIMIFF | 72700
7 | MSLFFLLFPHVFAFILFLLSSFYSLSPIHSVFYPSFSLFPLSSLFYLTFPFSL | 59400
8 | MPKLNLYKIFLSILCSVVILVVWFPNLESILLLRVLVFHLVKYIGLCLLFFLC | 56000
9 | KGGSEKSGNAGKKEDAGKKEAEKKKVEAGKNQGKGKQNTGSGGNKKAAKKGKK | 18400
10 | MYHAKFLYLLLGFLVYFLSSQTSINVYYISLNPFLFLAHPTILLIPLFPFRYT | 39700
11 | MSSLYFFDLMISWLLCFLAFRGDLFYMVFFFLYHFFFLLCGFWFFFCTDIHFY | 59900
12 | SSSTVVLAFGTDEKKIKEVGDALKTKLSVKGGGKGPRWSGKFAGVWKEDSAIE | < 6570
13 | VGEEGEEKESMRVRVREEMVAQATSLAFLRNVNAIGEETTSLLDTAARLVRIG | 63700
14 | MRLYCKVVYCHLFVSYLLPLSLTAHLNHLSKGRSLAIFCLLVLILSSFLFSFS | 27000
15 | VSVGLLDLLAYCGYGFIGVNATSVVKIFSSDSFWAVYGMFSYTMICLAFFTLR | 25800
16 | GLHFERRLFHLLFSTVCISICFCLLVFNLLIQNYMKKADQKEGMAAFAEKRKP | 28000
17 | MACCNQTWLYIPTNYYFAFLMFGISIVHVLFIQNQGFSRVIFFLFFAWDLFVS | 84600
18 | DSAPTKRGRGRPKGSKNKNKSVASPSSPTSGAGSSAPRKRGRPPKAKPAESGA | 38300
19 | GSHQGKEAKKEEGKKEEGKDKKEEEEGKKGGKKGGKKGGKGGKGKKTGETEAS | 38000
20 | AFHKLQLERGWTGAKMVMHLLKVYFSWQYGHHCTVYRPIFMRDMALGGPYFSQ | 55200
21 | SGSAAGPSSNAAEKETKEKSGQRRRGRRGGGGGGGGGGGDKNAATGTSQGASG | 35200

Row | Sequence | transcriptional activation domain activity
22 | KLWAKRRAIYSNVMGFLGGVAWAMLTARVCQLYPNACAASIVNRFFRIMYQWN | 49800
23 | DTCTKVHGRVFSREVHHIRFNRITTSTIVALRVASEVGAIWMLPMIYYTIVCW | 24200
24 | MTSRHSFKAIKVLVICCVFLFFLLLKRKDHFNSCCLIFHIKIGLIDVLIFFYF | 41900
25 | FLHCEPPTLLRLLGFFLCLVFSLYFTLSFPFFGPMLLLIRFSLGLPLPLVLMG | 58300
26 | QTPTDPESYWSDNRCKHSDCQELSPFASVFDLIDHYDHTHAFIPETLVKYSYI | 17600
27 | YGARPAAAAEEEEAAEPAEEEAAGEATEAEAGEEEAEATGEEETAEGEGAEGA | 25500
28 | AYNALQILSWTCRLICSSVLSLHWFRPGHESILQLYDSITFFLTMFFIELLSH | 49100
29 | PFPLSFPLPFLLSFPLPFLLSFPLISSQPFPLSLLSFPPFPPLSPLPPPSPFF | 44600
30 | SGIYSGGLSLWTAFFLGYFKAFLWGSFWGWLAGYFVLLFVICVAWNPFFFLYL | 57600
31 | MDDTERRTAKRSRFDQTEPEPKPRASRFDRRSRSPPARKPESRRSRSPIARPS | 17000
32 | PGEVSEAEANGEVKAEGEVVATDDAAKPKKKKSKKSRKARAAKAATEDEEGAA | < 6570
33 | PRKFICLTNQLTARLGCELDKDHDLFKRTLYAVVQYVLVNHPHHILYNLIALS | 46000
34 | LFGCVVSNVNGSSYLGLVYVIFMLYEGGLLLAMIKWRISTWIIYYICAFCLSL | 59600
35 | DDPDVEESDDEPVELWVARGEDRCDACKQRNIRVCEPQWGAPRSSACKTCARK | 31700
36 | RQAAMPKRKSPEEEDEEDEEEAPAKPAAKKAKTATAANGEKKSAGRGRPKKAA | 31700
37 | EVGADGGAAADEEEEEESDEEGEDGGRKRKKPKVAAEKPERKASAAPADGEKK | < 6570
38 | EKAKPAEEPKPAAEPAPAEEKAAEPETQPESKPAEELSSPTEEPAPIEEAKPA | 15800
39 | AAAAALRTEETADSAGQLAEAGCRSVDTADTAEGCLEEMAVVVVAVASSVGAM | 55600
40 | GPDPFQQLSSAEHPNNHSSDDEHSGSQPLPLDSITIGIPPTLHTIPMILSKDN | 62900
41 | NPLIIYSSQYSVWTMSFSLFFCVFWFLMAGCNFVRPSALHRVYSLIWMFILGW | 51800
42 | MVRSGILKCELLQNLSTVYPTIYLVLCCYSIVFFFNACLSFLVLFMHFAFLVK | 52800

Row | Sequence | transcriptional activation domain activity
43 | MNPPIHSLSFLQSYICFMLIPPLPLMFIIVFHPLYFFWLFLSFLLLDYYLSLL | 37800
44 | MRKNGSILSFRSFPPSPTFLPSFLLFFFSFPFFPVIFFQTPLLFLLLFFIYWG | 42000
45 | RRRGGRGAGEGGEGEQEKGEGEQEKGEGEQERGGKGSRRRGGRGAGEGGEGEQ | 13900
46 | VPLCVAVLLLLAPHPSILHVLLNYHYLTLHAPGYFVVHLLIIYALYFLAFSSL | 34000
47 | TGAFGATANTGSAFGQRPAFGSPAPTGFGAAQPAATGFGGGGAFGAGANNTTS | 22300
48 | MVVLTICQLHHWNAGWDFHLLFWVCLFYSVKKLYDLILWLNFILTSKDLVKSN | 40600
49 | WLLSVYILGFLAFELASVLIAIRVVAIWRRARPVLVFVVVALLTQFSFIIYLS | 23300
50 | KIHLVNMAQVVVIFLHRILYGIIPLFEITTCAYFPLLVSLWHLAYILFYVVMF | 81600
51 | GCRNAYEIKTLRFGGVCMLHRCGGGQNCFKECCIDLMICLRFYIPFMKKFCPK | 15900
52 | WTGWEGGRYLPFFFFPFFFFFATCCFSLFMILFFVFFFPGRISISFRLLLFFL | 43000
53 | TSWKNEDQALVFHLRSRVSAAIMKLECHRDRRIDLLITFREAQRFLLELIGWV | 59400
54 | KLYSLGHILHSFIFVFSFFHFLISFLHSGFLCPRLFMFSSSLLFYYFLVGFFF | 27700
55 | REGHLFSCIYIMYCQILFRKVGWSSVFDCAFHVLLAMSAAGNFLVVGAIRCKC | 37300
56 | MTSYVHQALVRFIGVTLTYQEYKEKLGRSFYLRNLAENTTMLGFLCWVNILHF | 33800
57 | RRERKERKRARKEKDRRKRRHRRSQTDSDEEDRERHRDSRRKRSRSASRERRE | 20000
58 | DSRKEERRPSGHERKDRERGRDSRKDRDRKRKERLDDTASDDKKDRKRDRGEK | 24700
59 | MMAMAFDPGFRDDEVVQFLLYELGVSSLLFCFVCFGDFVDFLDPFAFWVDLLF | 48600
60 | FWGLRSLPSSPFICLFLFYCGLVLMHSGLYLGLFLFLLFLSLSVFLFLSHFSV | 30100
61 | RPAPAKSKARSSRKAVVEEPEIPQAQEEEEDVKPVIRGRKKRVSIAEPEKPKR | 35300
